From patent publication US20250270343A1 (Alector, published 2025)
Residue numbers refer to the chain shown, from its start.

T1: mouse GPNMB endogenously expressed on B16F10 cells (mouse, UniProt Q99P91 23-574)
T1 construct: whole, on cells; also called moGPNMB
T1 sequence (looked up): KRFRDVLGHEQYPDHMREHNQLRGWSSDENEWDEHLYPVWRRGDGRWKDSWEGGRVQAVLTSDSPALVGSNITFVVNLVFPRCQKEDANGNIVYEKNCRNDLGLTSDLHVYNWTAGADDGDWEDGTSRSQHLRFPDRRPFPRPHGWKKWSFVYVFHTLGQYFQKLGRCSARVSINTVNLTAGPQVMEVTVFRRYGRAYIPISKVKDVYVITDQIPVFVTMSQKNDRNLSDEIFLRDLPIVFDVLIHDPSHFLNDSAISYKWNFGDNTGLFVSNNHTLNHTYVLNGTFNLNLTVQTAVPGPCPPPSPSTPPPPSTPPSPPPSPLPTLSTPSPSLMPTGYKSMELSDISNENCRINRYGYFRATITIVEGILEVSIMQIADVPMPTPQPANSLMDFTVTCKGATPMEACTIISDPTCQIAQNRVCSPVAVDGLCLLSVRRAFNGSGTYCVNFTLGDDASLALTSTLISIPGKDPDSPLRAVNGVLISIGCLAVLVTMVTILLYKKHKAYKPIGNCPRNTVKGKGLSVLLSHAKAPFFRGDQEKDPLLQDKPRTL

T2: soluble human GPNMB (recombinant extracellular domain) (human, UniProt Q14956 23-498)
T2 construct: also called huGPNMB; recombinant human GPNMB extracellular domain; not shown: C-terminal polyhistidine or Avi-His tag
T2 sequence: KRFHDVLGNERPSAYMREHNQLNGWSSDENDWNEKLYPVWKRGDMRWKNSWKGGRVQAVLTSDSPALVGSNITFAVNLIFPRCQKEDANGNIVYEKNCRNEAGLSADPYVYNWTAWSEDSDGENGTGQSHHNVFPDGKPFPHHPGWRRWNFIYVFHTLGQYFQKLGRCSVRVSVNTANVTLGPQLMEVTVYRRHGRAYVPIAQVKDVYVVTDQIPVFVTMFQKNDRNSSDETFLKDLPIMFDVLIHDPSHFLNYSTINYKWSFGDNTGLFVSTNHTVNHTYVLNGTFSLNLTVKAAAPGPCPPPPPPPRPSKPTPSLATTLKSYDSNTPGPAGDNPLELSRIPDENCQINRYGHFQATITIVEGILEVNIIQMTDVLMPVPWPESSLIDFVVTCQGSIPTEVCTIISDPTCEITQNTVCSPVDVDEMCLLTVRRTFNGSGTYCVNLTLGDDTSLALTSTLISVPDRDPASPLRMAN

T3: soluble cynomolgus GPNMB (recombinant extracellular domain) (cynomolgus, UniProt Q14956 23-499 (human entry), limits assumed)
T3 chain: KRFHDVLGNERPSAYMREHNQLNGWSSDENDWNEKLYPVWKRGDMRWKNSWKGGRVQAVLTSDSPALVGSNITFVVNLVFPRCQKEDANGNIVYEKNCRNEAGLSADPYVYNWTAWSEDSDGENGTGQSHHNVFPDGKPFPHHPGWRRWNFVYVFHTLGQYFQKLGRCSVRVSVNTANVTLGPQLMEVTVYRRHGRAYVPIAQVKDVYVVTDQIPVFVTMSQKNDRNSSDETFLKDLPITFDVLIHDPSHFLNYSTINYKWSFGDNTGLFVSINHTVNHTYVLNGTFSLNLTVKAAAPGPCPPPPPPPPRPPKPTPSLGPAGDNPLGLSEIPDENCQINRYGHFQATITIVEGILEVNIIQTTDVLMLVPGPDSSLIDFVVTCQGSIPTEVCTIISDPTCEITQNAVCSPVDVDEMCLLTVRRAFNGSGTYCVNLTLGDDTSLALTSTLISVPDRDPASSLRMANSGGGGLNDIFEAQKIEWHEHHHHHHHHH

B1: anti-GPNMB antibody GPN-01 (antibody, human IgG1, V domains shown)
VH: QVQLQQSGAELAKPGASVKLSCKASGYNFTNYCIHWVKQRPGQGLEWIGYINPSTGYTEYNQKFKDKATLTADKSSTTAYMQLSSLTSEDSAVYYCARGRYDEFTYWGQGTLVTVSA
VL: DIVLTQSPASLAVSLGQRATISCRASKSVSTSTYSYMHWYQQKPGQPPKLLIYLASNLESGVPARFSGSGSGTDFTLNIHPVEEEDAATYYCQHSRELPPTFGGGTKLEIK
notes: chimeric
B2: anti-GPNMB antibody GPN-52 (antibody, human IgG1, V domains shown)
VH: DVQLQESGPGLVKPSQTVFLTCTVTGISITTGNYRWSWIRQFPGNKLEWIGYIYYSGTITYNPSLTSRITITRDTPKNEFFLEMNSLTAEDTATYYCARDLTHWYFDVWGTGTTVTVSS
VL: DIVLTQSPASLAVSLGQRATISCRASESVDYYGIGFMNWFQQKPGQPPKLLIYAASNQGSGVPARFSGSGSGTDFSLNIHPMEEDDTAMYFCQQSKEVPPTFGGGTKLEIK
notes: chimeric
B3: anti-GPNMB antibody GPN-41 (antibody, human IgG1, V domains shown)
VH: QLQLQQSGTEVVKPGASVKIPCKASGYAFSSYWMNWVKQRPGKGLEWIGQIYPGDGDTNDNGKFEGKATLTVDKSSNTAYIQLSSLTSEDSAVYFCARSPLHLRGSMDYWGQGTSVTVSS
VL: SIVMTQTPKFLLVSAGDRVTITCKASQSVSNDVAWFQQKPGQSPELLIYSASNRYTGVPDRFTASGYGTDFTFTISAVQAEDLAVYFCQQNYYSPFTFGGGTRLEIK
notes: chimeric
B4: anti-GPNMB antibody GPN-65 (antibody, human IgG1, V domains shown)
VH: B3 VH
VL: B3 VL with A64G, A77T
notes: chimeric
B5: anti-GPNMB antibody GPN-35 (antibody, human IgG1, V domains shown)
VH: EVQLVESGGGSVRPGRSLKLSCAAAGFTFSDYYMTWVRQAPTKGLEWVASINHDGGGTYYRDSVKGRFTISRDNARSSLYLQMDSLRSEDTGTYYCTTRAGWHWGQGVMVTVSS
VL: DIQMTQSPASLSASLGETVSIECLASEDIYNYLTWYQQKPGKSPQVLIYSASGLQDGVPSRFSGSGSGRQYSLKINGLESEDAATYFCLQDSEYPLTFGSGTKLEIK
notes: chimeric
B6: anti-GPNMB antibody GPN-37 (antibody, human IgG1, V domains shown)
VH: EVQLVESGGGLVQPGRSLKLSCAASGFTFSSKSGMAWVRQAPTKGLEWVASISNGGGDTYYRDSVKGRFTISRDNAKNTQYLQMDSLRPEDTATYYCARHRDYGYDAYFDYWGQGVMVTVSS
VL: DIQMTQSPASLSASLGETVTIECLASEDIYSSLAWYQQKPGKSPQLLIYDASSLQDGVPSRFSGSESGTQYSLEINSLQSEDAATYFCQQHHDYPYTFGAGTKLELK
notes: chimeric
B7: anti-GPNMB antibody GPN-38 (antibody, human IgG1, V domains shown)
VH: QVQLQQPGAELVRPGTSVRLSCKASGYTFTSYWIHWVKQRPGRGLEWIGVIDPSDSYTNYNQQFNVKATLTVDTSSSAAYMQLSSLTSEDSAVYYCARGLITAVNWYFDVWGTGTTVTVSS
VL: DIQMTQSPASLSTSVGEIVTITCRASENIYSYLTWYQQKQGKSPQLLVYNAKTLAEGVPSRFSGSGSGTQFSLKINSLQPEDFGTYYCQHHYGTPLTFGSGTKLEIK
notes: chimeric
B8: anti-GPNMB antibody GPN-43 (antibody, human IgG1, V domains shown)
VH: EVQLQQSGPELVKPGASVKISCKASGYTFTDYYMNWVRQSHGKSLEWIGDINPYHGGSTYNQKIKVKATLTVDKSSSTAYMELRSLTSEDSAVYYCARNWPYFDYWGQGTTLTVSS
VL: DIQMTQSPASLSASVGETVTITCRASENIYSFLVWYQQKQGKSPQLLVYNAKTLAEGVPSRFSGSGSGTQFSLKISSLQPEDFGSYYCQHHFGTPPYTFGGGTKLEIK
notes: chimeric
B9: anti-GPNMB antibody GPN-42 (antibody, human IgG1, V domains shown)
VH: DVKLVESGEDLVKPGGSLKLSCAASGFTFSSYAMSWVRQTPEKRLEWVAYISSGGDYIYYADTVKGRFTISRDNARNTLYLQMSSLKSEDTAMYYCTRDRYYDYDVRDYYTMDYWGQGTSVTVSS
VL: DVMMTQTPLSLPVSLGDQASISCRSSQSLVHSNGNTYLHWFLQKPGQSPKLLIFRVSNRFSGVPDRFSGRGSGTDFTLKISRVEAEDLGVYFCSQTTHVPRTFGGGTTLEIK
notes: chimeric
B10: anti-GPNMB antibody GPN-61 (antibody, human IgG1, V domains shown)
VH: B2 VH with I69T, E79Q, N85S, Y96F, T102R
VL: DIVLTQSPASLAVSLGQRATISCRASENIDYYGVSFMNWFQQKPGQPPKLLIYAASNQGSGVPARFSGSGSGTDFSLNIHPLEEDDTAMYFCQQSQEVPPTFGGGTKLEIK
notes: chimeric
B11: anti-GPNMB antibody GPN-48 (antibody, human IgG1, V domains shown)
VH: QVQLQQSGPELVKPGASVKLSCRASGYGFSSFWMNWVKQRPGKGLEWIGRIYPGKGDTLYNGKFKDKATLTADESSSTAYMQLSSLTSEDSAVYFCARSIYYYDYWYFDVWDTGTTVTVSS
VL: DIVMTQSHKFMSTSVGDRVNITCKASQDVNSAIAWYQQKPGQSPKLLIYSASYRFIGVPDRFTGSGSGTGFTFTISSVQAEDLAVYYCQQHYTTPLTFGAGTKLELK
notes: chimeric

biological target: T1, mouse GPNMB endogenously expressed on …; assay: FACS, B16F10 cells
Description: (§1) Recombinant anti-GPNMB antibodies of the present disclosure were examined for their ability to bind human and/or mouse GPNMB expressed on Freestyle293-huGPNMB+ or B16F10 cells, respectively. B16F10 cells are a murine melanoma cell line from a C57BL/6J mouse that endogenously express high levels of mouse GPNMB. The antibodies were also tested for their ability to bind to a human macrophage cell line (U937 cells) engineered to express human GPNMB. Cells were harvested, plated at 100,000 cells/well in a 96-well round bottom plate, and incubated in 100 μl FACS buffer (PBS containing 2% FBS, 2 mM EDTA) containing anti-GPNMB monoclonal antibodies of the present disclosure for 30 minutes on ice. Cells were then washed and incubated in 100 ul FACS buffer containing 1 μg/ml APC-conjugated anti-human IgG secondary antibody for 30 minutes in ice. Cells were washed twice in cold FACS buffer and acquired on a BD FACS Canto. Data analysis and calculation of MFI values was performed with FlowJo (TreeStar) software version 10.0.7. […]

| MFI fold over background [fold] | Binder |
| --- | --- |
| 1 | B1 |
| 3.4 | B2 |
| 15 | B3 |
| 6.9 | B4 |
| 15.4 | B5 |
| 0.8 | B6 |
| 5.1 | B7 |
| 1.6 | B8 |
| 2.6 | B9 |

biological target: T2, soluble human GPNMB (recombinant …); assay: SPR Carterra, Ab immobilized
Description: (§2) Binding kinetics of human anti-GPNMB IgG1 antibodies of the present disclosure to human, cynomolgus, and mouse GPNMB were evaluated using a Carterra LSA instrument (Carterra, Salt Lake City, UT). […] A HC200M sensor chip (Carterra) was activated using the single channel flow cell with a 7-minute injection of a 1:1:1 mixture of 100 mM MES pH 5.5, 100 mM sulfo-NHS, 400 mM EDC (all reconstituted in MES pH 5.5; 100 μl of each mixed in vial immediately before running assay). After switching to the multi-channel array flow cell, the antibodies were injected over the activated chip in a 96-spot array for 15 minutes. The remaining unconjugated active groups on the chip were then blocked by injecting 1M Ethanolamine pH 8.5 (Carterra) for 7 minutes using the single channel flow cell.
(§3) After priming with running buffer (HBS-EP+, Teknova) with 0.5 mg/ml BSA (Sigma), the immobilized anti-GPNMB antibodies were tested for their ability to bind to several forms of recombinant GPNMB extracellular domain, including human, cynomolgus, and mouse orthologs as described above. Estimates of affinity were generated by injecting each analyte over the entire antibody array using the single channel flow cell. GPNMB analytes were diluted to 2.5, 7.4, 22, 67, 200, and 600 nM in running buffer, and injected in serial from lowest to highest concentration without regeneration. Two buffer blanks were run between each series (one species per series). Data were processed and analyzed using Kinetics high-throughput kinetics analysis software (Carterra).

| Kd [nM] | koff [s⁻¹] | kon [M⁻¹ s⁻¹] | Binder |
| --- | --- | --- | --- |
| 42.5 | 0.0038 | 91000 | B1 |
| 37.9 | 0.0032 | 86000 | B2 |
| 50.1 | 0.0035 | 71000 | B10 |
| 0.441 | 8.2e-05 | 200000 | B3 |
| 0.49 | 0.0001 | 210000 | B4 |
| 21 | 0.0015 | 71000 | B5 |
| 1 | 0.00011 | 110000 | B6 |
| 1.1 | 0.00037 | 330000 | B11 |
| 4.92 | 0.00053 | 110000 | B7 |
| 111 | 0.002 | 18000 | B8 |
| 6.1 | 8.3e-05 | 14000 | B9 |

Biological target: T3, soluble cynomolgus GPNMB (recombinant …)
Assay: SPR Carterra, Ab immobilized
Description: as §2, §3

| Kd [nM] | koff [s⁻¹] | kon [M⁻¹ s⁻¹] | Binder |
| --- | --- | --- | --- |
| 31 | 0.0034 | 110000 | B1 |
| 40.1 | 0.0036 | 90000 | B2 |
| 47.9 | 0.0041 | 86000 | B10 |

biological target: T1, mouse GPNMB endogenously expressed on …; assay: FACS on B16F10 mouse melanoma cells (endogenous mouse GPNMB); single antibody concentration (not given); APC anti-human IgG secondary; MFI as fold over background
Description: as §1

| binding result | Binder |
| --- | --- |
| no binding | B1 |
| no binding | B6 |
